Measured values taken from US20250179143A1, “SYSTEMS AND METHODS FOR CHAPERONE-MEDIATED LIGAND EXCHANGE ON MHC-I AND MHC-RELATED MOLECULES USING CHICKEN TAPBPR” (priority 2022, published 2025).

B1: chTapasin: recombinant luminal domain of chicken Tapasin, a homolog of TAPBPR (protein)
chain: QFRVEDAASPPPPPAPVRCALLEGVGRGGGLPGGGNARPALLRFGGDAETPPEPGPEPEVTFNVSDPWGTLTPLGVPPRTPPSCELNPTNPQTGSDPWSRPLHPDARSPPTAGGQWWVAAVGTPQYGVTALLQGGMGTEGTITAAVALAVLTHTPTLRARVGSPIHLHCAFAAPPSSFVLEWRHQNRGAGRVLLAYDSSTARAPRAHPGAELLLGTRDGDGVTAVTLRLARPSPGDEGTYICSVFLPHGHTQTVLQLHVFEPPKVTLSPKNLVVAPGTSAELRCHVSGFYPLDVTVTWQRRAGGSGTSQSPRDTVMDSWTSGHRQAADGTYSRTAAARLIPARPQHHGDIYSCVVTHTALAKPMRVSVRLLLAGTEGPHLEDIT
B2: moTAPBPR: recombinant luminal domain of mouse TAPBPR, XP_030111162.1 (protein)
chain: TDPPTAPTTAERQRQPTDIILDCFLVTEDRHRGAFASSGDRERALLVLKQVPVLDDGSLEGITDFQGSTETKQDSPVIFEASVDLVQIPQAEALLHADCSGKAVTCEISKYFLQARQEATFEKAHWFISNMQVSRGGPSVSMVMKTLRDAEVGAVRHPTLNLPLSAQGTVKTQVEFQVTSETQTLNHLLGSSVSLHCSFSMAPGLDLTGVEWRLQHKGSGQLVYSWKTGQGQAKRKGATLEPEELLRAGNASLTLPNLTLKDEGNYICQISTSLYQAQQIMPLNILAPPKIQLHLANKDPLPSLVCSIAGYYPLDVGVTWIREELGGIPAQVSGASFSSLRQSTMGTYSISSTVMADPGPTGATYTCQVAHVSLEEPLTTSMRVLPNPEQRG
B3: hTAPBPR^KRQ: human TAPBPR mutant R105K, K211R, R270Q (protein)
chain: KPHPAEGQWRAVDVVLDCFLAKDGAHRGALASSEDRARASLVLKQVPVLDDGSLEDFTDFQGGTLAQDDPPIIFEASVDLVQIPQAEALLHADCSGKEVTCEISKYFLQMTETTVKTAAWFMANMQVSGGGPSISLVMKTPRVTKNEALWHPTLNLPLSPQGTVRTAVEFQVMTQTQSLSFLLGSSASLDCGFSMAPGLDLISVEWRLQHRGRGQLVYSWTAGQGQAVRKGATLEPAQLGMARDASLTLPGLTIQDEGTYICQITTSLYQAQQIIQLNIQASPKVRLSLANEALLPTLICDIAGYYPLDVVVTWTREELGGSPAQVSGASFSSLRQSVAGTYSISSSLTAEPGSAGATYTCQVTHISLEEPLGASTQVVPPERR

Experiments:
[1] = DSF thermal stability of chaperone proteins; conditions: DSF of the recombinant chaperone protein
HLA-B*37:01 = HLA-B*37:01 (Homo sapiens, UniProt P01889, A329T/A93T/A95T/C349S/D138N/D201E/D98Y/E176V/E187T/E204Q/E69T/G107R/H137Y/K202T/L119I/N104T/N87E/Q94N/R106L/R155S/R180D/S101D/S121R/V306I/Y123S/Y140F/Y33H/Y91S); assay: SAB screen; type: binding; conditions: HLA-B*37:01 beads; FIG. 41
HLA-A*02:01 [2] = target: T1, HLA-A*02:01 (Homo sapiens, UniProt P04439, D140Y/D185E/D98H/E176V/E277Q/G131W/G231S/I119V/I121R/I166T/I218V/L300P/L318F/N151K/N90K/P208A/P217A/Q86G/Q94H/R138H/R169H/T345S); assay: Native gel shift assay (EMSA); type: binding; conditions: UV-irradiated HLA-A*02:01/KILGFVFJV, 1:1 molar ratio
Method: (§1) For native gel shift assays, purified MHC-I molecules refolded with photo-labeled peptides (pMHC-I) and TAPBPR proteins were loaded into polyacrylamide gels alone at 7 μM concentration and as mixtures. For the mixtures, 1:1 molar ratio of pMHC-I and TAPBPR samples at 7 μM each were prepared and incubated at room temperature (RT) for 1 hour. The samples were then UV-irradiated for another hour at 365 nm and were run at 90 V for 5.5 hours on a 12% polyacrylamide gel. Staining was performed using InstantBlue (Novus Biologicals).
as §1, with “Native gel” for “For native gel”, “shift assay. Purified” for “shift assays, purified”, “mixtures, a” for “mixtures,”, “each was” for “each were”, “at RT” for “at room temperature (RT)”

[3] = test system: 96 different HLA allotypes on single antigen HLA class I beads; assay: SAB screen, all beads; type: binding, human; conditions: across HLA allotypes; FIG. 23e
Method: For the Single Antigen Bead Screen, 7 μM of TAPBPR in tetramers were mixed with 4 μL of the LABScreen single antigen HLA-I bead suspension (OneLambda, Inc., CA, USA) in a 96-well plate. The samples were incubated for 1 hour, 550 rpm at RT, washed four times in Wash Buffer (OneLambda, Inc., CA, USA) to remove excess of tetramers and re-suspended in 1×PBS buffer (pH 7.2). For the negative controls, beads were incubated with the Anti-HLA Class I antibody W6/32 (Abcam, ab22432) for 30 min, 550 rpm at RT and washed three times prior tetramer addition. To test the levels of peptide loaded MHC-I molecules on the beads, Applicants used the same W6/32 antibody and the secondary anti-mouse PE-conjugated antibody (Abcam, ab97024) for detection. The levels of TAPBPR bound to the beads were measured using the Luminex 100 Liquid Array Analyzer System and the results were analyzed in GraphPad Prism v7.
SABs screen. 7 μM of TAPBPR in tetramers were mixed with 4 μL of the LABScreen single antigen HLA-I bead suspension (OneLambda, Inc., CA, USA) in a 96-well plate. […] The levels of TAPBPR bound to the beads were measured using the Luminex 100 Liquid Array Analyzer System and the results were analyzed in GraphPad Prism v9.

HLA-B*08:01 = HLA-B*08:01 (Homo sapiens, UniProt P01889, A93T/A95T/D138N/E176V/E187T/K202T/Q94N/R180D/S35A/V36M/Y33D/Y91F); assay: Fluorescence polarization (FP) peptide exchange; conditions: based on DSF or FP assays
HLA-A*02:06 = target: T2, HLA-A*02:06 (Homo sapiens, UniProt P04439, D140Y/D185E/D98H/E176V/E277Q/F33Y/G131W/G231S/I119V/I121R/I166T/I218V/L300P/L318F/N151K/N90K/P208A/P217A/Q86G/Q94H/R138H/R169H/T345S); assay: Fluorescence polarization (FP) peptide exchange; type: biochemical; conditions: pHLA-A*02:06
T2 construct: made in house

HLA-A*02:01 [4] = target: T1, HLA-A*02:01; assay: Fluorescence polarization (FP) peptide exchange; conditions: HLA-A*02:01/KILGFVFβFV, […]
HLA-A*02:01 [5] = target: T1, HLA-A*02:01; assay: SPR; conditions: peptide-deficient (empty) HLA-A*02:01
HLA-A*01:01 = HLA-A*01:01 (Homo sapiens, UniProt P04439, A114D/A174V/A182V/D101N/D185E/E176A/E190D/L180R/Q94H/R68K/S129P/T187R/V100A/V91M/W191G); assay: Fluorescence polarization (FP) peptide exchange; conditions: HLA-A*01:01, chaperone at 5 μM

Molecule	Tm [1]	binding of Tapasin tetramers (MFI) (HLA-B*37:01)	TAPBPR/MHC-I complex formation (HLA-A*02:01 [2])	MFI ratios [3]	Peptide exchange (HLA-B*08:01)	k2overall, fold improved compared to hTAPBPR (HLA-A*02:06)	k2overall, fold higher than hTAPBPR (HLA-A*02:01 [4])	Kd (HLA-A*02:01 [5])	apparent rate constant kapp (HLA-A*01:01)
B1	58 °C	tight binding	–	–	–	–	–	–	–
B2	56 °C	–	formed a new band	less than 5.8	–	–	–	–	–
B3	52.3 °C	–	–	–	failed to catalyze peptide exchange	approximately 9 fold	approximately 60 fold	243 nM	0.00013 s⁻¹
